# From IntAct's records for PubMed 20802536
# B1: Frizzled-4 (Homo sapiens), Q9ULV1 (parent)
# chain: MAWRGAGPSVPGAPGGVGLSLGLLLQLLLLLGPARGFGDEEERRCDPIRISMCQNLGYNVTKMPNLVGHELQTDAELQLTTFTPLIQYGCSSQLQFFLCSVYVPMCTEKINIPIGPCGGMCLSVKRRCEPVLKEFGFAWPESLNCSKFPPQNDHNHMCMEGPGDEEVPLPHKTPIQPGEECHSVGTNSDQYIWVKRSLNCVLKCGYDAGLYSRSAKEFTDIWMAVWASLCFISTAFTVLTFLIDSSRFSYPERPIIFLSMCYNIYSIAYIVRLTVGRERISCDFEEAAEPVLIQEGLKNTGCAIIFLLMYFFGMASSIWWVILTLTWFLAAGLKWGHEAIEMHSSYFHIAAWAIPAVKTIVILIMRLVDADELTGLCYVGNQNLDALTGFVVAPLFTYLVIGTLFIAAGLVALFKIRSNLQKDGTKTDKLERLMVKIGVFSVLYTVPATCVIACYFYEISNWALFRYSADDSNMAVEMLKIFMSLLVGITSGMWIWSAKTLHTWQKCSNRLVNSGKVKREKRGNGWVKPGKGSETVV
# partner: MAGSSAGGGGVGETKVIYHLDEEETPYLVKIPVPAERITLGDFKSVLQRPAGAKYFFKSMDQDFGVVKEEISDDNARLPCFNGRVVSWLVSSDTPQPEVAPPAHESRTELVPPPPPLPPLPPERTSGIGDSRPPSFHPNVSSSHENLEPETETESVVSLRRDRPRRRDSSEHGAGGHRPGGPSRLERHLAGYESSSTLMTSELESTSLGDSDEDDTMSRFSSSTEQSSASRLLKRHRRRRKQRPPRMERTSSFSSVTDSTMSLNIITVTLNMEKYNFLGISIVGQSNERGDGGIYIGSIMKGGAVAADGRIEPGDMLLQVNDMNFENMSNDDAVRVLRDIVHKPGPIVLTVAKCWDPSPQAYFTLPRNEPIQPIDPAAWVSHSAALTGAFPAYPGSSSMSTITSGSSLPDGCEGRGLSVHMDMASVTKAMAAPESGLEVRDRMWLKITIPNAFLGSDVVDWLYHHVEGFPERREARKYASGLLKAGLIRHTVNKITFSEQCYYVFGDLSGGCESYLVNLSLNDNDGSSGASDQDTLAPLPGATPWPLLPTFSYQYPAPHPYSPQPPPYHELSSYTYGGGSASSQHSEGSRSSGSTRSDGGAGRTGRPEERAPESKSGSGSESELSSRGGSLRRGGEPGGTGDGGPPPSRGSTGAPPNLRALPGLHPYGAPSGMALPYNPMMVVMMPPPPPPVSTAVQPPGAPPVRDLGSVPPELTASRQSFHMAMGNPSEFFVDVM
# B2: Frizzled-4 (Homo sapiens), Q9ULV1 (parent)
# chain: B1 chain
# partner: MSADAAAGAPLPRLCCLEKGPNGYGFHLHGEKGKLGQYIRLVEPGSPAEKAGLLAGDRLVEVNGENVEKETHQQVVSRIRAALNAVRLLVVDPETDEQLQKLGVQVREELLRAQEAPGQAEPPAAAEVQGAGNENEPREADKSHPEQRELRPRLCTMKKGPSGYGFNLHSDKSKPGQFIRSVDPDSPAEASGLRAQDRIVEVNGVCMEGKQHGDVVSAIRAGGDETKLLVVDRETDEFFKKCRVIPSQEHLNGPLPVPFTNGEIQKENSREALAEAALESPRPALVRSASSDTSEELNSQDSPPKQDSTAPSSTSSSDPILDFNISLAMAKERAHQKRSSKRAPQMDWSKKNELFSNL
# Variants of: B1
# Settings: with dvl2_mouse Dvl2, Q60838
row,effect of a mutation on the interaction,Variant
1,decreasing interaction,MAWRGAGPSVPGAPGGVGLSLGLLLQLLLLLGPARGFGDEEERRCDPIRISMCQNLGYNVTKMPNLVGHELQTDAELQLTTFTPLIQYGCSSQLQFFLCSVYVPMCTEKINIPIGPCGGMCLSVKRRCEPVLKEFGFAWPESLNCSKFPPQNDHNHMCMEGPGDEEVPLPHKTPIQPGEECHSVGTNSDQYIWVKRSLNCVLKCGYDAGLYSRSAKEFTDIWMAVWASLCFISTAFTVLTFLIDSSRFSYPERPIIFLSMCYNIYSIAYIVRLTVGRERISCDFEEAAEPVLIQEGLKNTGCAIIFLLMYFFGMASSIWWVILTLTWFLAAGLKWGHEAIEMHSSYFHIAAWAIPAVKTIVILIMRLVDADELTGLCYVGNQNLDALTGFVVAPLFTYLVIGTLFIAAGLVALFKIRSNLQKDGTKTDKLERLMVKIGVFSVLYTVPATCVIACYFYEISNWALFRYSADDSNMAVEMLKIFMSLLVGITSGMWIWSAKTLHTWQKCSNRLVNSGKVKREKRGNGWVKPGKGSETVA [V537A]

# Variants of: B2
# Settings: with nhrf1_human NHERF1, O14745
row,effect of a mutation on the interaction,Variant
1,decreasing interaction,MAWRGAGPSVPGAPGGVGLSLGLLLQLLLLLGPARGFGDEEERRCDPIRISMCQNLGYNVTKMPNLVGHELQTDAELQLTTFTPLIQYGCSSQLQFFLCSVYVPMCTEKINIPIGPCGGMCLSVKRRCEPVLKEFGFAWPESLNCSKFPPQNDHNHMCMEGPGDEEVPLPHKTPIQPGEECHSVGTNSDQYIWVKRSLNCVLKCGYDAGLYSRSAKEFTDIWMAVWASLCFISTAFTVLTFLIDSSRFSYPERPIIFLSMCYNIYSIAYIVRLTVGRERISCDFEEAAEPVLIQEGLKNTGCAIIFLLMYFFGMASSIWWVILTLTWFLAAGLKWGHEAIEMHSSYFHIAAWAIPAVKTIVILIMRLVDADELTGLCYVGNQNLDALTGFVVAPLFTYLVIGTLFIAAGLVALFKIRSNLQKDGTKTDKLERLMVKIGVFSVLYTVPATCVIACYFYEISNWALFRYSADDSNMAVEMLKIFMSLLVGITSGMWIWSAKTLHTWQKCSNRLVNSGKVKREKRGNGWVKPGKGSETVA [V537A]
